One molecule from patent US20260070975A1 can be followed below.

Assay [1] deals with c-Kit expressed on the cell surface of M-07e cells (human) (UniProt P10721).
Assay [2] has the same target. As to the kind of experiment: cell-based or functional assay.

Sequence of c-Kit expressed on the cell surface of M-07e cells (human) (P10721 26-976): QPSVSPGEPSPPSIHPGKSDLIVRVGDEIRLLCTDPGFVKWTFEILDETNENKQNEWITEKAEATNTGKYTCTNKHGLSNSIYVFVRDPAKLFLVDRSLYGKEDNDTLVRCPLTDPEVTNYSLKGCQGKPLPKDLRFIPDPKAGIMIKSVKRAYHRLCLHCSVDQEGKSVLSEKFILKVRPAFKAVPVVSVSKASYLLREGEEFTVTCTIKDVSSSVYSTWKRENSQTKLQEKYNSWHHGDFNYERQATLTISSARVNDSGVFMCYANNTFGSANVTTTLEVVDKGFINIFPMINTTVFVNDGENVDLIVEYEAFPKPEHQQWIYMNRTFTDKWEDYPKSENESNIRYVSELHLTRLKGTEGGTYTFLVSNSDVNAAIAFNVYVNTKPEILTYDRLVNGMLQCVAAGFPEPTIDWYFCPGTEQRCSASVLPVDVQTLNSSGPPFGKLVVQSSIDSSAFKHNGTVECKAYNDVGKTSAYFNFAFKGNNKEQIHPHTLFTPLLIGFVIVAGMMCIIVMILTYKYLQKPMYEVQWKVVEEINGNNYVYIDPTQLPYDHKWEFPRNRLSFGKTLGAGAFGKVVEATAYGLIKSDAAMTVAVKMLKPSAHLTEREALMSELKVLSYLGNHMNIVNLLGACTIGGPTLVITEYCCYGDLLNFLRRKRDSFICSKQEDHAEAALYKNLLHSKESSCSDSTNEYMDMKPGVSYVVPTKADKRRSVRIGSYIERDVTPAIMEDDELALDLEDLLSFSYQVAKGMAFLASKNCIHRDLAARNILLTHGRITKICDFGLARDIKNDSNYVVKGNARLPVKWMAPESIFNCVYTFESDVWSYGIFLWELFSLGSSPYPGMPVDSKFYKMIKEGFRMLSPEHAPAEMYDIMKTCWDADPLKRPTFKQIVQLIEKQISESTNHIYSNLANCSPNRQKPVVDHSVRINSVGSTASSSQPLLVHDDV

B1: CDX-0159 (antibody, INN chains, looked up, V domains shown)
VH: QVQLVQSGAEVKKPGASVKLSCKASGYTFTDYYINWVRQAPGKGLEWIARIYPGSGNTYYNEKFKGRATLTADKSTSTAYMQLSSLRSEDTAVYFCARGVYYFDYWGQGTTVTVSS
VL: DIVMTQSPSSLSASVGDRVTITCKASQNVRTNVAWYQQKPGKAPKALIYSASYRYSGVPDRFTGSGSGTDFTLTISSLQPEDFADYFCQQYNSYPRTFGGGTKVEIK
In assay [1], B1 had an IC50 (read off the curve) of 100 to 200 pM. This molecule had an IC50, inhibition of SCF-dependent proliferation of M-07e cells in assay [2] of 408 pM.
